Experimental data as given in publication PMC7812859, “Structure of SARS-CoV-2 ORF8, a rapidly evolving immune evasion protein” (Proceedings of the National Academy of Sciences of the …, 2020).

Target: the molecule itself
Experiment: crystal structure

B1: SeMet-labeled V32M/L84M ORF8 double mutant (domain or fragment)
chain: QECSLQSCTQHQPYMVDDPCPIHFYSKWYIRVGARKSAPLIELCVDEAGSKSPIQYIDIGNYTVSCMPFTINCQEPKLGSLVVRCSFYEDFLEYHDVRVVLDFI
modifications: selenomethionine (SeMet-labeled)
notes: also called ORF8 V32M, L84M double-mutant; SeMet-labeled ORF8 double-mutant protein
**Q.** Does B1 bind?
**A.** Result: binds
